In paper PMC12494797, “Multi-domain O-GlcNAcase structures reveal allosteric regulatory mechanisms” (Nature Communications, 2025):

What was measured:
[1] = biological target: T1, OgHAT (OgAT) (Oceanicola granulosus, UniProt Q2CEE2); test: SPR (Biacore […]), […] equilibrium-binding fit
T1 construct: gene OG2516_04134; amine-biotinylated, captured on streptavidin CM5 chip; not known to form dimers

[2] = biological target: His-tagged Trichoplax adhaerens OGA pHAT domain (TapHAT) (Trichoplax adhaerens); test: SEC; analytical; Superdex 200 Increase 10/300 GL; 500 μL of His-tagged pHAT at 1 mg/mL; 25 mM Tris pH 7.5, 150 mM NaCl, 0.5 mM TCEP; LMW calibration standards
[3] = biological target: the molecule itself; test: as above
[4] = biological target: the molecule itself; test: cryo-EM structure; 0.5 mg/mL hOGA or TaOGA vitrified at 4 °C; Titan Krios 300 kV; CryoSPARC

T1 sequence (Q2CEE2 whole entry): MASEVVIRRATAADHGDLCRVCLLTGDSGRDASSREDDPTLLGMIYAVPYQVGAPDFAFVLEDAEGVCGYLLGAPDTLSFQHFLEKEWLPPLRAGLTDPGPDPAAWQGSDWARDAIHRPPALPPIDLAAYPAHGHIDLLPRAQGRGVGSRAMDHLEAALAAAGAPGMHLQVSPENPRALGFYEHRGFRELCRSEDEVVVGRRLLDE

With `CC(=O)SCCNC(=O)CCNC(=O)[C@H](O)C(C)(C)COP(=O)(O)OP(=O)(O)OC[C@H]1O[C@@H](n2cnc3c(N)ncnc32)[C@H](O)[C@@H]1OP(=O)(O)O` [acetyl-CoA] as the molecule, how does the Kd [1] read?
The Kd was 5 mM.

With “His-tagged Trichoplax adhaerens OGA pHAT domain (TapHAT) (domain or fragment)” as the molecule, how does the stoichiometry N [2] read?
Its stoichiometry N is 2.

B1: His-tagged human OGA pHAT domain (hpHAT) (domain or fragment, UniProt O60502 710-916, looked up)
chain: PTSKVYTIRPYFPKDEASVYKICREMYDDGVGLPFQSQPDLIGDKLVGGLLSLSLDYCFVLEDEDGICGYALGTVDVTPFIKKCKISWIPFMQEKYTKPNGDKELSEAEKIMLSFHEEQEVLPETFLANFPSLIKMDIHKKVTDPSVAKSMMACLLSSLKANGSRGAFCEVRPDDKRILEFYSKLGCFEIAKMEGFPKDVVILGRSL
notes: pHAT domain of human O-GlcNAcase (OGA), residues 710-916; non-cleavable 6xHis-tag; also called human pHAT; isolated human pHAT domain; source: E. coli BL21(DE3) pLysS, purified (NiNTA, Superdex 75)
With B1 as the molecule, how does the “stoichiometry N” value [3] read?
The value was 2.

B2: Trichoplax adhaerens O-GlcNAcase (TaOGA), residues 5-723 (enzyme, UniProt A0A0D5X2Y8 5-723, looked up)
chain: KFLSGVVEGFYGKPWSFEQRKTLFSNMAKWGLNTYMYGPKDDEKHRAAWKQAYSKREGDSLRALIRAAEESGILFIYAISPGVDITYSSNRDMKFLKDKLDQIRNFGCNSFAIFFDDIDTVMCLQDQEEFESFAAAQVEVTNEIYKYLGMPANFLFCPTEYCAARADPNVKESKYLVTVGTGLHSDIHIMWTGPKVVSNKISVESILELQTVLRRKPVIWDNIHANDYEQGRLNLGPYDCRPAELMESLNGIFTNPNCEFELNYVPIRTFSLWCQSKRTRFNYDVEKALEQSIREWTEEFCIPRLPDGYLLEADTSDTNVNEYMDDEMQSDSRPISPANSMETDKDELTVKDIRLLVELFYLPQKHGKTANDLLAQAKWLKSNFRIAALSRKPNDTSEGSNLDEHNTDYIAAKEWDKRFSKFRSICQIIHQFGDRLMTCRNRVLLYEVYNYVADLCGILYHLISRIHSLANPEKLEKRSDSEQSSFRYGGFVGDIHRLIVSTDEYEESTLKNSDAYVIRPFMPSDEETLYDLCLKSCIENSNGDEIYKREPRIIGDRDLGAYIYLHPEYIYVLEDDRDKICGYLCGALDSKQFYERYESEWLTQIRDRHPQPENDIASWTPEEIVANSFYNFTPPTDVSVLYLSHLEARFDSSVPEKVIKRIIRFILEQLKAKGSYGASMLIDSWRTNLRRIFTSMGFVDLQEYSWMSEQKCMIAIKLM
notes: TaOGA (TaOGA54), Trichoplax adhaerens, residues 5-723; the results call it full-length; also called TaOGA54; full-length TaOGA; source: E. coli BL21(DE3) pLysS, purified (Ni-NTA, PreScission cleavage, Superdex 200); not shown: His6, N-terminal, cleaved
Does B2 bind [4]?
Result: binds
